What was measured:
[1] = molecular target: T1, Androgen receptor (AR), full-length (Homo sapiens, UniProt P10275 P10275:1-920); assay: EMSA; 10 nM R1881, 30 mM KCl, 2 mM MgCl2, pH 7.5, poly(dI-dC); details: tags: none stated; cDNA from pSVAR0 in pBluescript II SK+, T7/wheat germ extract (Promega); chain copies: 2; label: 32P 5' end
Description: (§1) Double-stranded oligonucleotides constituting either the wild-type ARE or a mutated version thereof at −186, relative to the TARP transcription initiation site, were 5′end labeled with […] using T4 polynucleotide kinase (Amersham Bioscience, Piscataway, N.J.). The wild-type oligonucleotide sequence was […] and includes the ARE[−186] sequence of the TARP promoter. The corresponding oligonucleotide sequence with the mutated version of the ARE[−186] was […]. Full-length human AR cDNA was subcloned from PSVAR0 (Brinkmann et al., J. Steroid Biochem., 34: 307-310, 1989) to pBluescript II SK+ (Stratagene). In vitro-translated human AR was produced by transcription-coupled translation by using T7 RNA polymerase and wheat germ extract (Promega). Translated AR was incubated with either wild-type ARE[−186] probe or mutated ARE[−186] probe in a buffer containing 20 mM HEPES (pH 7.5), 30 mM KCl, 2 mM MgCl₂, 1 mM EDTA, 1 mM dithioerythritol, 1 mM phenylmethylsulfonyl fluoride, 10 nM R1881, 15% glycerol, 1 μg poly(dI-dC)poly(dI-dC) and 1 μg BSA. Samples were resolved by electrophoresis on 5% TBE/polyacrylamide gels. The gels were dried and subjected to autoradiography.

[2] = molecular target: T1, Androgen receptor (AR), full-length; assay: EMSA; 10 nM R1881, 30 mM KCl, 2 mM MgCl2, pH 7.5, poly(dI-dC); abolished by 100-fold unlabeled wild-type competitor; details: tags: none stated; cDNA from pSVAR0 in pBluescript II SK+, T7/wheat germ extract (Promega); chain copies: 2; label: 32P 5' end
Description: as §1

T1 sequence (P10275 whole entry, one chain of several): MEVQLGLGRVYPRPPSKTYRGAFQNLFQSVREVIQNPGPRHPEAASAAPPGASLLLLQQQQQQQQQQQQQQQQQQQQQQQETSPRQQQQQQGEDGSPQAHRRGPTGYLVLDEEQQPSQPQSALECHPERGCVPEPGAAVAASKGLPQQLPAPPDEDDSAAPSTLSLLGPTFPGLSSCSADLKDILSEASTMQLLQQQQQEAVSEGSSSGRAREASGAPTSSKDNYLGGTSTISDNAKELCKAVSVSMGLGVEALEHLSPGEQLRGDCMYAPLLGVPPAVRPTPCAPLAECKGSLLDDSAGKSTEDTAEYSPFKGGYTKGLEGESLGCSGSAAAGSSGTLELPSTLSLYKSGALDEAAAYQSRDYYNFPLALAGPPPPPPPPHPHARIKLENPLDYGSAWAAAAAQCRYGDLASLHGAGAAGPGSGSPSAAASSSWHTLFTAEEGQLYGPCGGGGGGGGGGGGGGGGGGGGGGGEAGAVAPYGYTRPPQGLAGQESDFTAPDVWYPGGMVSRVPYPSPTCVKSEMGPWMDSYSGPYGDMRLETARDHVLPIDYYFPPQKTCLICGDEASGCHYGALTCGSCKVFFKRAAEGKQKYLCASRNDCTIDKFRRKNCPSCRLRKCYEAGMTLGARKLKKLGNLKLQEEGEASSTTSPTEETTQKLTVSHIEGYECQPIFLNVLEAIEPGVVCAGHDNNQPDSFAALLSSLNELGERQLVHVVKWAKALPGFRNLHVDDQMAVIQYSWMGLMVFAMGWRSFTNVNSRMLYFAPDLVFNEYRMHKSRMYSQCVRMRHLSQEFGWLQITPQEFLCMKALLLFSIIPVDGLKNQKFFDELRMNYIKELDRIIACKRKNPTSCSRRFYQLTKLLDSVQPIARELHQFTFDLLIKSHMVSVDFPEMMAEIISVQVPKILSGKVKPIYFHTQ

Row | Binder | binding result [1] | binding result [2]
1 | mutated ARE[-186] oligo (dsDNA) DNA 1: GCAAGGTGTGGTCAACTATTAAA DNA 2: TTTAATAGTTGACCACACCTTGC | no binding | –
2 | wild-type ARE[-186] TARP promoter oligo (dsDNA) DNA 1: GCAAGGTGAGGTCAGTTCTTAAA DNA 2: TTTAAGAACTGACCTCACCTTGC | – | binds
